“And” between values parts separate entries of the source, which are not always exact repeats. Equal values may be shown once. Read-outs that look alike come from different tables or passages of the source.
Assays:
[1] = target: T1, HER2 extracellular domain (Her2-ECD) (human, UniProt P04626 23-652); experiment: competitive phage ELISA
T1 construct: extracellular domain; also called hHER2 extracellular domain (ECD)

[2] = target: T2, human death receptor 5 (hDR5) (human, UniProt O14763 56-210); experiment: equilibrium KD; method and format (Fab or IgG) not given
T2 construct: also called DR5 long; hDR5-1f

[3] = target: T1, HER2 extracellular domain (Her2-ECD); experiment: equilibrium KD; method and format (Fab or IgG) not given; HER2, second number of the cell
hVEGF109 [4] = target: T3, hVEGF109 (human, UniProt P15692 214-315); experiment: ELISA on immobilised target
T3 construct: range 8-109; also called VEGF (8-109)
T3 sequence (looked up): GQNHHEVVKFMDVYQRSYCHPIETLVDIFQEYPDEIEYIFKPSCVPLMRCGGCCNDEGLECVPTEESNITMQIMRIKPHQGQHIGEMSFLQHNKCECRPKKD

hVEGF165 = target: T4, hVEGF165 (human, UniProt P15692-4 27-191); experiment: ELISA on immobilised target
T4 construct: also called human VEGF165

murine VEGF (mVEGF) = target: T5, murine VEGF (mVEGF) (murine, UniProt Q00731-2 27-190); experiment: ELISA on immobilised target
T5 sequence (looked up): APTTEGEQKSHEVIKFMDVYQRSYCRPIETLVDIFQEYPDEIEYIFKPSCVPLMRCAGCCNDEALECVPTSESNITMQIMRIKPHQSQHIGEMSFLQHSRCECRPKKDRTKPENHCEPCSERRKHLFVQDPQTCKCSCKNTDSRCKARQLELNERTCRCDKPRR

[5] = target: T6, human vascular endothelial growth factor (hVEGF) (human, UniProt P15692-4 27-191); experiment: ELISA on immobilised protein
T6 construct: also called hVEGF-A; human vascular endothelial growth factor A

[6] = target: T1, HER2 extracellular domain (Her2-ECD); experiment: ELISA on immobilised protein
hVEGF-C [7] = target: T7, hVEGF-C (human, UniProt P49767 103-227); experiment: ELISA on immobilised protein
T7 sequence (looked up): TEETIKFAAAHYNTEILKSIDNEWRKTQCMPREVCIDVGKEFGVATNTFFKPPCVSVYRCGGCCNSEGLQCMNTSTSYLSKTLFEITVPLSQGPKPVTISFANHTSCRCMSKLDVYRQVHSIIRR

hVEGF-D [8] = target: T8, hVEGF-D (human, UniProt O43915 93-201); experiment: ELISA on immobilised protein
T8 sequence (looked up): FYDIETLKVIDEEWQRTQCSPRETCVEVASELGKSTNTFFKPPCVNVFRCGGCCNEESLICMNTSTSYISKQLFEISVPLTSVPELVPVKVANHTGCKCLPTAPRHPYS

[9] = target: T9, epidermal growth factor receptor extracellular domain (hEGFR) (human, UniProt P00533 25-645); experiment: ELISA on immobilised protein
T9 construct: extracellular domain

[10] = target: bovine serum albumin (BSA) (bovine, UniProt P02769 25-607); experiment: ELISA on immobilised protein
[11] = target: T1, HER2 extracellular domain (Her2-ECD); experiment: Biacore SPR
hVEGF109 [12] = target: T3, hVEGF109; experiment: Biacore SPR, steady state analysis (* for kon and koff)
[13] = target: T6, human vascular endothelial growth …; experiment: competitive phage ELISA
[14] = target: T1, HER2 extracellular domain (Her2-ECD); experiment: competitive phage ELISA; remark: listed apart in the source
hVEGF109 [15] = target: T3, hVEGF109; experiment: single-spot competitive phage ELISA
[16] = target: T1, HER2 extracellular domain (Her2-ECD); experiment: single-spot competitive phage ELISA
[17] = target: T1, HER2 extracellular domain (Her2-ECD); experiment: competitive phage ELISA; remark: listed apart in the source
hVEGF109 [18] = target: T3, hVEGF109; experiment: Biacore SPR
[19] = target: T1, HER2 extracellular domain (Her2-ECD); experiment: single-spot phage ELISA
[20] = target: T6, human vascular endothelial growth …; experiment: equilibrium KD; method and format (Fab or IgG) not given
[21] = target: T2, human death receptor 5 (hDR5); experiment: ELISA on immobilised protein
hVEGF-C [22] = target: T7, hVEGF-C; experiment: ELISA on immobilised target
hVEGF-D [23] = target: T8, hVEGF-D; experiment: ELISA on immobilised target
[24] = target: T9, epidermal growth factor receptor …; experiment: ELISA on immobilised target

B1: bD2 (antibody, V domains shown)
VH: not shown
VL: DIQMTQSPSSLSASVGDRVTITCRASQNIRNGGGLAWYQQKPGKAPKLLIYSASFLYSGVPSRFSGSGSGTDFTLTISSLQPEDFATYYCQQHYTTPPTFGQGTKVEIKR
IC50 [1]: 17 nM | Kd [2]: 67000 nM | Kd [3]: 100 nM

B2: 4-1 IgG (antibody, V domains shown)
VH: not shown
VL: DIQMTQSPSSLSASVGDRVTITCRASQDIWNRRALAWYQQKPGKAPKLLIYEGSSLYSGVPSRFSGSGSGTDFTLTISSLQPEDFATYYCQQGGSYSSPPTFGQGTKVEIKR
notes: not shown: rest of the human IgG heavy chain constant region
binding result (hVEGF109 [4]): no binding (tested: 100 nM (text)) | binding result (hVEGF165): no binding (tested: 100 nM (text)) | binding result (murine VEGF (mVEGF)): no binding (tested: 100 nM (text)) | binding result [5]: no binding (tested: 100 or 500 nM (text)) | binding result [6]: no binding (tested: 100 or 500 nM (text)) | binding result (hVEGF-C [7]): no binding (tested: 100 or 500 nM (text)) | binding result (hVEGF-D [8]): no binding (tested: 100 or 500 nM (text)) | binding result [9]: no binding (tested: 100 or 500 nM (text)) | binding result [10]: no binding (tested: 100 or 500 nM (text))

B3: H4_D (antibody, V domains shown)
VH: not shown
VL: DIQMTQSPSSLSASVGDRVTITCRASQDIRSGSVAWYQQKPGKAPKLLIYWGSYLYSGVPSRFSGSGSGTDFTLTISSLQPEDFATYYCQQHYTTPPTFGQGTKVEIK
notes: also called H4_D hIgG
Kd [11]: 11 nM | koff [11]: 0.0012 s⁻¹ | kon [11]: 100000 M⁻¹ s⁻¹ | Kd (hVEGF109 [12]): 2300 nM

B4: 3-2 (scFv, V domains shown)
VH: not shown
VL: DIQMTQSPSSLSASVGDRVTITCRASQDIRMGSVAWYQQKPGKAPKLLIYWGSVLYSGVPSRFSGSGSGTDFTLTISSLQPEDFATYYCQQHYTTPPTFGQGTKVEIK
IC50 [13]: > 1000 nM | IC50 [14]: 1.56 nM

B5: H4_N (antibody, V domains shown)
VH: not shown
VL: DIQMTQSPSSLSASVGDRVTITCRASQNIRSGSVAWYQQKPGKAPKLLIYWASYLYSGVPSRFSGSGSGTDFTLTISSLQPEDFATYYCQQHYTTPPTFGQGTKVEIK
notes: also called H4_N hIgG; H4_N Fab
Kd [11]: 10 nM and 6 nM | koff [11]: 0.0013 s⁻¹ | kon [11]: 140000 M⁻¹ s⁻¹ and 230000 M⁻¹ s⁻¹ | Kd (hVEGF109 [12]): 550 nM

B6: H5 (row of FIG.8a) (scFv, V domains shown)
VH: not shown
VL: DIQMTQSPSSLSASVGDRVTITCRASQDIRGGSVAWYQQKPGKAPKLLIYGGSYLYSGVPSRFSGSGSGTDFTLTISSLQPEDFATYYCQQYYTTPPTFGQGTKVEIK
% signal, SSC +/- 50nM Vegf (hVEGF109 [15]): 88.8% | OD450 without competitor (hVEGF109 [15]): 2.77 | OD450 without competitor [16]: 2.87

B7: bD1 (antibody, V domains shown)
VH: not shown
VL: DIQMTQSPSSLSASVGDRVTITCRASQNVSKHVAWYQQKPGKAPKLLIYWGSYLYSGVPSRFSGSGSGTDFTLTISSLQPEDFATYYCQQSYSGPPTFGQGTKVEIKR
IC50 [1]: 30 nM | Kd [2]: 14000 nM | Kd [3]: 200 nM

B8: bH1 (antibody, V domains shown)
VH: not shown
VL: DIQMTQSPSSLSASVGDRVTITCRASQDIPRSISGYVAWYQQKPGKAPKLLIYWGSYLYSGVPSRFSGSGSGTDFTLTISSLQPEDFATYYCQQHYTTPPTFGQGTKVEIKR
notes: also called anti-hVEGF/Her2 bi-specific antibody
IC50 [17]: 10 nM | Kd [3]: 26 nM

B9: 3-1 (antibody, V domains shown)
VH: not shown
VL: DIQMTQSPSSLSASVGDRVTITCRASQNVWDWVAWYQQKPGKAPKLLIYPASSLYSGVPSRFSGSGSGTDFTLTISSLQPEDFATYYCQQGWYIAPPTFGQGTKVEIKR
Kd (hVEGF109 [18]): 15 nM | binding result [19]: no binding | Kd [20]: 15 nM

B10: 3-1 hIgG (antibody, V domains shown)
VH: not shown
VL: DIQMTQSPSSLSASVGDRVTITCRASQNVWDWVAWYQQKPGKAPKLLIYPASSLYSGVPSRFSGSGSGTDFTLTISSLQPEDFATYYCQQGWYIAPPTFGQGTKVEIKR
notes: as for B2
Kd (hVEGF109 [18]): 12 nM | binding result [6]: no binding (tested: 100 or 500 nM (text)) | binding result [21]: no binding (tested: 100 or 500 nM (text)) | binding result (hVEGF-C [7]): no binding (tested: 100 or 500 nM (text)) | binding result (hVEGF-D [8]): no binding (tested: 100 or 500 nM (text)) | binding result [9]: no binding (tested: 100 or 500 nM (text)) | binding result [10]: no binding (tested: 100 or 500 nM (text))

B11: bH3 (antibody, V domains shown)
VH: not shown
VL: DIQMTQSPSSLSASVGDRVTITCRASQDIGLGSVAWYQQKPGKAPKLLIYWASYLYSGVPSRFSGSGSGTDFTLTISSLQPEDFATYYCQQHYTTPPTFGQGTKVEIKR
IC50 [17]: 2.6 nM | OD450 without competitor [16]: 1.96 | Kd [20]: 19000 nM | Kd [3]: 8 nM

B12: H3 hIgG (antibody, V domains shown)
VH: not shown
VL: DIQMTQSPSSLSASVGDRVTITCRASQDIGLGSVAWYQQKPGKAPKLLIYWASYLYSGVPSRFSGSGSGTDFTLTISSLQPEDFATYYCQQHYTTPPTFGQGTKVEIKR
notes: also called bH3 IgG; not shown: rest of the human IgG heavy chain constant region
Kd [11]: 20 nM | binding result (murine VEGF (mVEGF)): no binding (tested: 100 nM (text)) | binding result (hVEGF-C [22]): no binding (tested: 100 nM (text)) | binding result (hVEGF-D [23]): no binding (tested: 100 nM (text)) | binding result [24]: no binding (tested: 100 nM (text)) | binding result [21]: no binding (tested: 100 or 500 nM (text)) | binding result [10]: no binding (tested: 100 or 500 nM (text))

B13: 4-5 IgG (antibody, V domains shown)
VH: not shown
VL: DIQMTQSPSSLSASVGDRVTITCRASQNVGRPVAWYQQKPGKAPKLLIYGGSSLYSGVPSRFSGSGSGTDFTLTISSLQPEDFATYYCQQYGSFGTPPTFGQGTKVEIKR
notes: as for B2
binding result (hVEGF109 [4]): no binding (tested: 100 nM (text)) | binding result (hVEGF165): no binding (tested: 100 nM (text)) | binding result (murine VEGF (mVEGF)): no binding (tested: 100 nM (text)) | binding result [5]: no binding (tested: 100 or 500 nM (text)) | binding result [6]: no binding (tested: 100 or 500 nM (text)) | binding result (hVEGF-C [7]): no binding (tested: 100 or 500 nM (text)) | binding result (hVEGF-D [8]): no binding (tested: 100 or 500 nM (text)) | binding result [9]: no binding (tested: 100 or 500 nM (text)) | binding result [10]: no binding (tested: 100 or 500 nM (text))

— patent publication US20220033515A1 (Genentech, published 2022)
